One substance from paper PMC6885551 can be followed below.

What is called Kd is a measure of binding affinity in units of concentration.

The test deals with Salmonella FraB deglycase, wild type (Salmonella enterica). Put plainly: native MS.

Substance “Salmonella FraB deglycase, wild type (enzyme)” gave a Kd of 31 to 63 nM.
